Results taken from PMC12746103, “Structural insights into the exchange mechanism of a replicative DNA polymerase” (Nucleic Acids Research, 2025).
Residue numbers refer to the chain shown, from its start. Names and notes keep the numbering of the source. Values joined by “and” are separate entries in the source; they are usually repeats but may differ in a detail not shown here. Equal entries are not always repeated.

T1: dimer-interface mutant gp43(exo-) DNA polymerase;gp45 sliding clamp (wt) (T4 bacteriophage;T4 bacteriophage, UniProt P04415;P04525 1-898;1-228, D219A;D75R;Q430E;K432E|)
T1 sequence 1: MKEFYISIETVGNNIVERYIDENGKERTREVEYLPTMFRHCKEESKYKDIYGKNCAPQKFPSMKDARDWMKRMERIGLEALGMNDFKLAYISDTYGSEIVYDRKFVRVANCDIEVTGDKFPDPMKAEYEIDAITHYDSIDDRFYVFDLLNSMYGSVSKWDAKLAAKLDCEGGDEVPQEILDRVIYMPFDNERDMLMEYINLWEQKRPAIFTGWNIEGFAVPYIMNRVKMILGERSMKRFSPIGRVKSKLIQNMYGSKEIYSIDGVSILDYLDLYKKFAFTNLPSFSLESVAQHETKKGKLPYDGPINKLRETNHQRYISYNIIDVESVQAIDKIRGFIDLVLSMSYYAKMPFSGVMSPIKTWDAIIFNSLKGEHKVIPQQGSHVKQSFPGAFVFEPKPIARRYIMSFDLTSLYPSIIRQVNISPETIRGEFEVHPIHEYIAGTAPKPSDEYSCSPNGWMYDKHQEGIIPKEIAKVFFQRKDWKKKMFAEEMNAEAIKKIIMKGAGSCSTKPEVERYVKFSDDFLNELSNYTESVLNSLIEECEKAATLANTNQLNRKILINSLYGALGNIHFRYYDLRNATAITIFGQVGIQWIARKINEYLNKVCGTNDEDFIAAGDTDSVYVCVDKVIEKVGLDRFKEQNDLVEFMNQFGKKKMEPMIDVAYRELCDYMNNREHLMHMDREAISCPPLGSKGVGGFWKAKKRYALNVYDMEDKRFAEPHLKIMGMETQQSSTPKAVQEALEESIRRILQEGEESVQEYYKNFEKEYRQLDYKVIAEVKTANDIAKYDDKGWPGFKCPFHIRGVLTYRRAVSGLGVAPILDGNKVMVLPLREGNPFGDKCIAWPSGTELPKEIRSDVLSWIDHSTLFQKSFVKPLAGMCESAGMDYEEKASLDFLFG
T1 sequence 2: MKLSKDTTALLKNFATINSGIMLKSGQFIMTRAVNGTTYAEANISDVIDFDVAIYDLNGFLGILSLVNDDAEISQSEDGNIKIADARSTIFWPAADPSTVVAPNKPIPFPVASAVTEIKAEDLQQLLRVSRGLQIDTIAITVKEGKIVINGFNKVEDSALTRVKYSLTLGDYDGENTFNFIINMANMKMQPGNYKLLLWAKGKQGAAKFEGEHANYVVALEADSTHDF

T2: gp43(exo-) DNA polymerase;gp45 sliding clamp (wt) (T4 bacteriophage;T4 bacteriophage, UniProt P04415;P04525 1-898;1-228, D219A|)
T2 sequence 1: T1 sequence 1 with R75D, E430Q, E432K
T2 sequence 2: T1 sequence 2

B1: P/T DNA (25-nt primer / 38-nt template) (dsDNA)
DNA 1: CTGCACGAATTAAGCAATTCGTAATCATGGTCATAGCT
DNA 2: AGCTATGACCATGATTACGAATTGC
modifications: primer 3'-terminal dideoxycytidine (ddC)
B2: T4 bacteriophage gp43(exo-) exonuclease-deficient DNA polymerase (D219A) (enzyme, bacteriophage T4)
chain: T1 sequence 1 with R75D, E430Q, E432K
notes: DNA polymerase gp43 of bacteriophage T4 with the exonuclease-deficient mutation D219A; also called gp43 polymerase; T4 polymerase; source: E. coli BL21(DE3), purified (chitin resin with intein-mediated cleavage, heparin)
B3: dimer-interface mutant gp43(exo-) polymerase (D75R, Q430E, K432E in gp43(exo-) D219A) (enzyme, bacteriophage T4)
chain: T1 sequence 1
notes: DNA polymerase gp43 of bacteriophage T4 with D219A (exo-) and the three dimer-interface mutations D75R, Q430E and K432E; PDB 9EA3 holds this mutant; the other three entries hold its parent m1; also called dimer-interface mutant polymerase; mutant polymerase; source: E. coli BL21(DE3), purified (chitin resin with intein-mediated cleavage, heparin)
B4: T4 bacteriophage gp45 sliding clamp (natural protein, bacteriophage T4)
chain: T1 sequence 2
notes: sliding clamp gp45 of bacteriophage T4, wild type, homotrimeric ring; also called wt-gp45 clamp; gp45 clamp; source: E. coli BL21(DE3), pET26b, purified (hydroxyapatite, anion exchange)

Assays:
[1] = biological target: T1, dimer-interface mutant gp43(exo-) DNA …; experiment: cryo-EM; ddTTP; one-polymerase holoenzyme, 4.0 A; cryo-EM assembly: 1.2 polymerase : 2 clamp : 1 DNA (molar) with ddTTP; proteins purified in HEPES pH 7.8 buffers; assembly salt and temperature not given in material; settings: protein: recombinant;recombinant; tags: self-cleaving intein chitin tag, removed;; copies: 1;3; primer-template; 13 nt 5' template overhang, 25 bp duplex
[2] = biological target: T2, gp43(exo-) DNA polymerase;gp45 sliding …; experiment: cryo-EM; ddTTP; two-polymerase complex state 1; DNA at right polymerase, primer end outside both active sites; cryo-EM assembly: 1.2 polymerase : 2 clamp : 1 DNA (molar) with ddTTP; proteins purified in HEPES pH 7.8 buffers; assembly salt and temperature not given in material; settings: protein: recombinant;recombinant; chain copies: 2;3; primer-template; 13 nt 5' template overhang, 25 bp duplex
[3] = biological target: B4; experiment: cryo-EM structure; 10 μM gp45 clamp mixed with 5 μM primer/template DNA (20 mM HEPES pH 7.5, 150 mM KOAc, 10 mM MgCl2, 0.5 mM ddTTP, 2 mM DTT; 10 min, 30°C), then 6 μM gp43 polymerase added (10 min room temperature, 1 h on ice); no clamp loader; settings: both partners purified
[4] = biological target: the molecule itself; experiment: as above
[5] = biological target: B2; experiment: as above; settings: both partners purified
[6] = biological target: B3; experiment: as above; settings: both partners purified

B1: binds [1]; binds [2].

In the case of B2, the “stoichiometry N” value [3] is reported as 1 polymerase per clamp ring and 2 polymerases per clamp ring and the “stoichiometry N” value [4] is reported as 2.

In the case of B3, the “stoichiometry N” value [3] is reported as 1 polymerase per clamp ring.

B4: binds [5]; binds [6].
